Reference: PMC4176178, “An evolutionarily conserved interaction of tumor suppressor protein Pdcd4 with the poly(A)-binding protein contributes to translation suppression by Pdcd4” (Nucleic Acids Research, 2014)

T1: GST-Pdcd4 (full-length human Pdcd4 fused to GST) (human, UniProt Q53EL6 1-469)
T1 construct: programmed cell death 4 (Pdcd4), human, full length; also called GST-Pdcd4-wt; pGex-6P2-hPdcd4wt; source: purified
T1 sequence (looked up): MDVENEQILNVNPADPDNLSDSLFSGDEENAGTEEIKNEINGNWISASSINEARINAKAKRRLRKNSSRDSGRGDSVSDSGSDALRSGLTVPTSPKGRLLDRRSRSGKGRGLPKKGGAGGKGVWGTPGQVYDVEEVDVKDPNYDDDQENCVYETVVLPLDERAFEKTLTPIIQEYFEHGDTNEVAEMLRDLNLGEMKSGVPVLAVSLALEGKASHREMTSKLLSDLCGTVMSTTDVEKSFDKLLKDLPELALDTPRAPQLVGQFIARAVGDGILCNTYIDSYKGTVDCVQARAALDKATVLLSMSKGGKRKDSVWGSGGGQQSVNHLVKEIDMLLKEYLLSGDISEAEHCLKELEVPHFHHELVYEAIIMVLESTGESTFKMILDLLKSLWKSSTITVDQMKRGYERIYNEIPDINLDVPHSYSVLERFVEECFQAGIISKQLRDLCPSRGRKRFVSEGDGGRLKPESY

B1: mouse His-PABP-RRM1–4 (amino acids 1–375) (domain or fragment, UniProt P29341 1-375, looked up)
chain: MNPSAPSYPMASLYVGDLHPDVTEAMLYEKFSPAGPILSIRVCRDMITRRSLGYAYVNFQQPADAERALDTMNFDVIKGKPVRIMWSQRDPSLRKSGVGNIFIKNLDKSIDNKALYDTFSAFGNILSCKVVCDENGSKGYGFVHFETQEAAERAIEKMNGMLLNDRKVFVGRFKSRKEREAELGARAKEFTNVYIKNFGEDMDDERLKELFGKFGPALSVKVMTDESGKSKGFGFVSFERHEDAQKAVDEMNGKELNGKQIYVGRAQKKVERQTELKRKFEQMKQDRITRYQGVNLYVKNLDDGIDDERLRKEFSPFGTITSAKVMMEGGRSKGFGFVCFSSPEEATKAVTEMNGRIVATKPLYVALAQRKEERQ
notes: Vector was a gift from Lorna Waters; source: bacterially expressed, purified (Ni-NTA)
B2: GST-Pdcd4-RBDstop (only the N-terminal RNA-binding domain of human Pdcd4) (domain or fragment, UniProt Q53EL6 1-154, looked up)
chain: MDVENEQILNVNPADPDNLSDSLFSGDEENAGTEEIKNEINGNWISASSINEARINAKAKRRLRKNSSRDSGRGDSVSDSGSDALRSGLTVPTSPKGRLLDRRSRSGKGRGLPKKGGAGGKGVWGTPGQVYDVEEVDVKDPNYDDDQENCVYET
notes: translation stop codon introduced at amino acid position 155; The last residue 154 follows from the stop codon at position 155; also called pGex-6P2-hPdcd4-RBDstop; source: purified

How the values were obtained:
[1] = biological target: T1, GST-Pdcd4 (full-length human Pdcd4 …); experiment: pull-down; GST fusion protein-loaded sepharose beads incubated with purified, bacterially expressed His-PABP-RRM1–4; western blotting with PABP antibodies or Coomassie staining; also in the absence or presence of 0.5 μg/ml RNase A; conditions: both partners purified
[2] = biological target: B1; experiment: as above; conditions: both partners purified

| Binder | binding result [1] | binding result [2] |
| --- | --- | --- |
| B1 | binds |  |
| B2 |  | binds |
